Eight molecules from publication doi:10.1101/2022.05.05.490853 (bioRxiv, 2022) can be followed below.

To fix the notation:
B1: recombinant monoclonal antibody 15E2 (antibody, V domains shown)
VH: QSLEESGGGLFKPTDTLTLTCTVSGIDLSSYAMIWVRQAPGKGLEWIGYIWSSGRIWYASWAKGRFTISRTSTTVDLKLASPTTEDTATYFCARLWDIWGPGTLVTVSS
VL: AQVLTQTPSSVSAAVGGTVTISCQASQSLYNGVNLAWYQQKPGQPPKLLIFGASNLESGVSSRFRGSGSGTQFTLTISGVQCDDAATYYCLGEFSCSSADCLAFGGGTEVVVK
B2: recombinant monoclonal antibody 17A8 (antibody, V domains shown)
VH: QSVEESGGRLVTPGTPLTLTCTVSGFPLSSYSMAWVRQAPGKGLEYIGFINTDGSAYYASWAKGRITISKTSTTVELKITSPTTEDTATYFCGTGNIWGPGTLVTVSS
VL: AQVLTQTPSSVSAAVGGTVTINCQASQSVSNNNVLAWFQQKPGQPPKRLIYSALTLDSGVPSRFKGSGSGTHFTLTISGVQCDDAATYYCAGGYDCSSNDCIAFGGGTEVVVK
B3: recombinant monoclonal antibody 28D3 (antibody, V domains shown)
VH: QSVEESGGRLVTPGTPLTLTCTVSGFSLSSYSMGWVRQAPGKGLEYIGMIISNNSTYYASWAKGRITISKTSTTVELKITSPTTEDTATYFCGTGNIWGPGTLVTVSS
VL: AQVLTQTPASVSAAVGGTVTINCQASQSTSNNNALAWFQQKPGQPPKRLIYSALTLDSGVPSRFKGSGSGTHFTLTISGVQCDDAATYYCAGGYDCSSNDCITFGGGTEVVVK
B4: recombinant monoclonal antibody 1D11 (re-cloned, second most abundant VH and VL) (antibody, V domains shown)
VH: QSLVESGGGLVQPEGSLTLTCKASGFSFSSGYDMCWVRQAPGKGLEYIACIDAGDDITHYASWVKGRFTVSKTSSTTVTLQLNSLTVADTATYFCGRFWDLWGPGTLVTVSS
VL: SSVLTQTPSPVSAAVGGTVTINCQSSQSVYDSTWLGWYQQKPGQPPKLLIYKASNLASGVPSRFKGSGSGTHFTLTISDLECDDAATYYCVGGYSGSVDNWAFGGGTEVVVK
B5: antibody in the supernatant of B cell line 15E2 (antibody, V domains shown)
VH: QSLEESGGGLFKPTDTLTLTCTVSGIDLSSYAMIWVRQAPGKGLEWIGYIWSSGRIWYASWAKGRFTISRTSTTVDLKLASPTTEDTATYFCARLWDIWGPGTLVTVSS
VL: AQVLTQTPSSVSAAVGGTVTISCQASQSLYNGVNLAWYQQKPGQPPKLLIFGASNLESGVSSRFRGSGSGTQFTLTISGVQCDDAATYYCLGEFSCSSADCLAFGGGTEVVVK
B6: antibody in the supernatant of B cell line 28D3 (antibody, V domains shown)
VH: QSVEESGGRLVTPGTPLTLTCTVSGFSLSSYSMGWVRQAPGKGLEYIGMIISNNSTYYASWAKGRITISKTSTTVELKITSPTTEDTATYFCGTGNIWGPGTLVTVSS
VL: AQVLTQTPASVSAAVGGTVTINCQASQSTSNNNALAWFQQKPGQPPKRLIYSALTLDSGVPSRFKGSGSGTHFTLTISGVQCDDAATYYCAGGYDCSSNDCITFGGGTEVVVK
B7: antibody in the supernatant of B cell line 17A8 (antibody, V domains shown)
VH: QSVEESGGRLVTPGTPLTLTCTVSGFPLSSYSMAWVRQAPGKGLEYIGFINTDGSAYYASWAKGRITISKTSTTVELKITSPTTEDTATYFCGTGNIWGPGTLVTVSS
VL: AQVLTQTPSSVSAAVGGTVTINCQASQSVSNNNVLAWFQQKPGQPPKRLIYSALTLDSGVPSRFKGSGSGTHFTLTISGVQCDDAATYYCAGGYDCSSNDCIAFGGGTEVVVK
B8: antibody in the supernatant of B cell line 1D11 (antibody, V domains shown)
VH: QSLVESGGGLVQPEGSLTLTCKASGFSFSSGYDMCWVRQAPGKGLEYIACIDAGDDITHYASWVKGRFTVSKTSSTTVTLQLNSLTVADTATYFCGRFWDLWGPGTLVTVSS
VL: SSVLTQTPSPVSAAVGGTVTINCQSSQSVYDSTWLGWYQQKPGQPPKLLIYKASNLASGVPSRFKGSGSGTHFTLTISDLECDDAATYYCVGGYSGSVDNWAFGGGTEVVVK

The target of one test is T1, recombinant VlsE protein (vlsE cassette region of B. burgdorferi B31-5A3) (Borreliella burgdorferi B31, clone …, UniProt O06878). Briefly: ELISA. For orientation: An ELISA detects its analyte on a solid surface through an enzyme-linked reagent.
B1: the binding result is “binds”.

Take B2: the binding result was “binds”.

B3: the binding result is “binds”.

For the molecule B4, the binding result is listed as “binds”.

The target of a further test is T1, recombinant VlsE protein (vlsE cassette …). Briefly: ELISA. This is another data set of the same source.
On to B5, for which the binding result was “binds”.

Turning to B6, the binding result is listed as “binds”.

With B7, the binding result is given as “binds”.

Consider B8, for which the binding result is recorded as “binds”.
